Source: PMC4895972, “Calcium binding protects E-cadherin from cleavage by Helicobacter pylori HtrA” (Gut Pathogens, 2016)

Target: the molecule itself
Assay: non-reducing SDS-PAGE; 3 µg HpHtrA preincubated in 50 mM HEPES pH 7.5 without or with increasing concentrations of CaCl2; sample buffer without β-mercaptoethanol; Coomassie-stained

B1: recombinant HtrA (high temperature requirement A) from H. pylori strain 26695, wildtype (enzyme)
chain: GNIQIQSMPKVKERVSVPSKDDTIYSYHDSIKDSIKAVVNISTEKKIKNNFIGGGVFNDPFFQQFFGDLGGMIPKERMERALGSGVIISKDGYIVTNNHVIDGADKIKVTIPGSNKEYSATLVGTDSESDLAVIRITKDNLPTIKFSDSNDISVGDLVFAIGNPFGVGESVTQGIVSALNKSGIGINSYENFIQTDASINPGNSGGALIDSRGGLVGINTAIISKTGGNHGIGFAIPSNMVKDTVTQLIKTGKIERGYLGVGLQDLSGDLQNSYDNKEGAVVISVEKDSPAKKAGILVWDLITEVNGKKVKNTNELRNLIGSMLPNQRVTLKVIRDKKERAFTLTLAERKNPNKKETISAQNGAQGQLNGLQVEDLTQETKRSMRLSDDVQGVLVSQVNENSPAEQAGFRQGNIITKIEEVEVKSVADFNHALEKYKGKPKRFLVLDLNQGYRIILVK
notes: also called HpHtrA; H. pylori HtrA; source: E. coli BL21, purified (GSH-Sepharose, GST-tag removed with PreScission protease, dialyzed against 50 mM Tris pH 7.5)
binding result: binds
